Data reported in paper PMC3120740, “WRKY Transcription Factors Involved in Activation of SA Biosynthesis Genes”.
Changes are numbered by the printed parent chain.

B1: m1+2 (dsDNA)
DNA 1: ATTTCCCGGTATTTCAATTTCCGGAGATAT
DNA 2: ATATCTCCGGAAATTGAAATACCGGGAAAT
B2: ICS1 -278 (dsDNA)
DNA 1: CTAATAATAATAGATCAAACAATTAACTGA
DNA 2: TCAGTTAATTGTTTGATCTATTATTATTAG
B3: m2.3 (dsDNA)
DNA 1: B1 DNA 1 with C21G, C22T
DNA 2: B1 DNA 2 with G9A, G10C
B4: m2.7 (dsDNA)
DNA 1: ATTTCCCGGTATTTCACCTTGTCAAGATAT
DNA 2: ATATCTTGACAAGGTGAAATACCGGGAAAT
B5: ICS1 -725 (dsDNA)
DNA 1: ATTTTAGAAATGTGTCAAAATTTAAAGGAG
DNA 2: CTCCTTTAAATTTTGACACATTTCTAAAAT
B6: m2.1 (dsDNA)
DNA 1: ATTTCCCGGTATTTCAATGGGTCAAGATAT
DNA 2: ATATCTTGACCCATTGAAATACCGGGAAAT
B7: m1 (dsDNA)
DNA 1: B6 DNA 1 with G19T, G20T
DNA 2: B4 DNA 2 with G13A, G14T
B8: m2.4 (dsDNA)
DNA 1: ATTTCCCGGTATTTCAATTTGTCACCATAT
DNA 2: ATATGGTGACAAATTGAAATACCGGGAAAT
B9: ICS1 -648 (dsDNA)
DNA 1: TTGCAATTTGTAGTGACATGTAATGTTTTT
DNA 2: AAAAACATTACATGTCACTACAAATTGCAA
B10: m2.2 (dsDNA)
DNA 1: B1 DNA 1 with G23C, G24A
DNA 2: B1 DNA 2 with C7T, C8G
B11: m2 (dsDNA)
DNA 1: ATTTCTGACTATTTCAATTTCCGGAGATAT
DNA 2: ATATCTCCGGAAATTGAAATAGTCAGAAAT
B12: ICS1 -844 WK-like box (dsDNA)
DNA 1: AATAGTATTGATTTTCCAAATTTAATTATA
DNA 2: TATAATTAAATTTGGAAAATCAATACTATT
B13: m2.8 (dsDNA)
DNA 1: ATTTCCCGGTATTTCAATTTGTCAAGGGAT
DNA 2: ATCCCTTGACAAATTGAAATACCGGGAAAT
B14: m2.5 (dsDNA)
DNA 1: B8 DNA 1 with C25G, C26A
DNA 2: B8 DNA 2 with G5T, G6C

These binders were tested against T1, GST-WRKY28 (Arabidopsis thaliana, UniProt Q8VWJ2 1-318) (assay: EMSA; 0.5 ug protein, ~0.01 pmol probe; 3 uL 5x buffer (20% glycerol, 5 mM MgCl2, 2.5 mM EDTA, 2.5 mM DTT, 250 mM NaCl, 50 mM Tris-HCl pH 7.5, 0.25 mg/mL poly(dI-dC)) in 14 uL + 1 uL probe (final about 50 mM NaCl, 10 mM Tris, 1 mM MgCl2); room temperature, 20 min). Conditions: protein: recombinant; tags: N-terminal GST (pGEX-KG); label: 32P-dCTP end-fill (Klenow); 5'-GGG overhangs filled in with Klenow.
T1 sequence (Q8VWJ2 whole entry): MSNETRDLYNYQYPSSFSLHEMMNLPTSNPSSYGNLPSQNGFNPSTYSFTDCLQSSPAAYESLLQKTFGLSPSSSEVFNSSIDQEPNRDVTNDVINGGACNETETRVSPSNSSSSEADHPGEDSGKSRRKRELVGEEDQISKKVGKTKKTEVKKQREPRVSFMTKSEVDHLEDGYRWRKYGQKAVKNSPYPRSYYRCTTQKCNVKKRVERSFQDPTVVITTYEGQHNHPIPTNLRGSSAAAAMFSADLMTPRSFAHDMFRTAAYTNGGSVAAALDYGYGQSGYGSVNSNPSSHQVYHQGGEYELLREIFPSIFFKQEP

| Binder | binding result |
| --- | --- |
| B1 | no binding |
| B2 | no binding |
| B3 | no binding |
| B4 | no binding |
| B5 | no binding |
| B6 | binds |
| B7 | binds |
| B8 | binds |
| B9 | no binding |
| B10 | no binding |
| B11 | binds |
| B12 | no binding |

The binders below were run against T1, GST-WRKY28 (assay: EMSA; unaltered binding; 0.5 ug protein, ~0.01 pmol probe; 3 uL 5x buffer (20% glycerol, 5 mM MgCl2, 2.5 mM EDTA, 2.5 mM DTT, 250 mM NaCl, 50 mM Tris-HCl pH 7.5, 0.25 mg/mL poly(dI-dC)) in 14 uL + 1 uL probe (final about 50 mM NaCl, 10 mM Tris, 1 mM MgCl2); room temperature, 20 min). Conditions: protein: recombinant; tags: N-terminal GST (pGEX-KG); label: 32P-dCTP end-fill (Klenow); 5'-GGG overhangs filled in with Klenow.

| Binder | binding result |
| --- | --- |
| B13 | binds |

These binders were tested against T1, GST-WRKY28 (assay: EMSA; as strong as wild type; 0.5 ug protein, ~0.01 pmol probe; 3 uL 5x buffer (20% glycerol, 5 mM MgCl2, 2.5 mM EDTA, 2.5 mM DTT, 250 mM NaCl, 50 mM Tris-HCl pH 7.5, 0.25 mg/mL poly(dI-dC)) in 14 uL + 1 uL probe (final about 50 mM NaCl, 10 mM Tris, 1 mM MgCl2); room temperature, 20 min). Conditions: protein: recombinant; tags: N-terminal GST (pGEX-KG); label: 32P-dCTP end-fill (Klenow); 5'-GGG overhangs filled in with Klenow.

| Binder | binding result |
| --- | --- |
| B14 | binds |
